{
  "source": "patent US20230414780A1",
  "about": "(VECT HORUS, published 2023)",
  "binders": {"B1": {"name": "C5^h18 (VHH)", "VHH": "EVQLVESGGGVVQPGGSLKLSCVASGTDFSINFIRWYRQAPGKGLEFVAGFTATGNTNYADSVKGRFTISRDNAKNTLYLQMNSLRPEDTAVYYCYMLDKWGQGTQVTVSS"}, "B2": {"name": "VHH A1 (C5^V1) (VHH)", "VHH": "B1 VHH with T27A, G44Q, L45R, V63M, A74T, T77A, L78V, M82I, N83D, R86K"}, "B3": {"name": "C5^h19 (VHH)", "VHH": "B1 VHH with K19R, V23A, G44Q, L45R"}, "B4": {"name": "VHH A13 (C5^V13) (VHH)", "VHH": "B1 VHH with G44Q, L45R, T52S, V63M, A74T, T77A, L78V, M82I, N83D, R86K"}, "B5": {"name": "B8^h1 (VHH)", "VHH": "EVQLVESGGGVVQPGGSLRLSCAASGEIFSINFMRWYRQAPGKGLEWVAGFTRDGSTNYPDSVKGRFTISRDNAKNTVYLQMNSLRPEDTAVYYCYMLDTWGQGTQVTVSS"}, "B6": {"name": "13C3-HC-C5h9 (antibody)", "heavy": "QVQLQQSGPELVRPGVSVKISCKGSGYTFTDYAMHWVKQSHAKSLEWIGVISTKYGKTNYNQKFKGKATMTVDKSSSTAYMELARLTSEDSAIYYCARGDDGYSWGQGTSVTVSSAKTTPPSVYPLAPGSAAQTNSMVTLGCLVKGYFPEPVTVTWNSGSLSSGVHTFPAVLQSDLYTLSSSVTVPSSTWPSETVTCNVAHPASSTKVDKKIVPRDCGCKPCICTVPEVSSVFIFPPKPKDVLTITLTPKVTCVVVDISKDDPEVQFSWFVDDVEVHTAQTQPREEQFNSTFRSVSELPIMHQDWLNGKEFKCRVNSAAFPAPIEKTISKTKGRPKAPQVYTIPPPKEQMAKDKVSLTCMITDFFPEDITVEWQWNGQPAENYKNTQPIMDTDGSYFVYSKLNVQKSNWEAGNTFTCSVLHEGLHNHHTEKSLSHSPGGGGGMAEVQLVESGGGVVQPGGSLRLSCAASGTDFSINFIRWYRQAPGKGLEFVAGFTATGNTNYADSVKGRFTISRDNAKNTLYLQMNSLRPEDTAVYYCYMLDKWGQGTQVTVSSAAA", "light": "DVVMTQTPLSLPVSLGDQASISCRSGQSLVHSNGNTYLHWYLQKPGQSPKLLIYTVSNRFSGVPDRFSGSGSGSDFTLKISRVEAEDLGVYFCSQNTFVPWTFGGGTKLEIKRADAAPTVSIFPPSSEQLTSGGASVVCFLNNFYPKDINVKWKIDGSERQNGVLNSWTDQDSKDSTYSMSSTLTLTKDEYERHNSYTCEATHKTSTSPIVKSFNRNEC"}, "B7": {"name": "13C3-HC-C5h20 (antibody)", "heavy": "B6 heavy with T521A, L522V", "light": "B6 light", "notes": "homodimeric fusion, bivalent for TfR"}, "B8": {"name": "13C3-HC-C5h24 (antibody)", "heavy": "B6 heavy with V507M", "light": "B6 light"}, "B9": {"name": "C5-Thiol-Mal-siSOD1m (VHH)", "VHH": "B1 VHH with G44Q, L45R, V63M, A74T, T77A, L78V, M82I, N83D, R86K", "modifications": "chain 1 pos 117: free Cys of the tag coupled by thiol-maleimide chemistry to the maleimide-functionalised siSOD1m duplex (SEQ ID NOs 465/466), written C", "notes": "Member of the group m173; also called VHH-thiol-Mal-siSOD1m wherein VHH is C5"}},
  "note": "Residue numbers refer to the chain shown, from its start.",
  "data": [
    {"target": "T1, human TfR ectodomain fused to a mouse IgG1 Fc fragment (human, UniProt P02786 89-760)", "T1 construct": "extracellular domain; ectodomain fused to the N-terminal end of the Fc, made in-house; not shown: mouse IgG1 Fc fragment", "T1 sequence (P02786 89-760)": "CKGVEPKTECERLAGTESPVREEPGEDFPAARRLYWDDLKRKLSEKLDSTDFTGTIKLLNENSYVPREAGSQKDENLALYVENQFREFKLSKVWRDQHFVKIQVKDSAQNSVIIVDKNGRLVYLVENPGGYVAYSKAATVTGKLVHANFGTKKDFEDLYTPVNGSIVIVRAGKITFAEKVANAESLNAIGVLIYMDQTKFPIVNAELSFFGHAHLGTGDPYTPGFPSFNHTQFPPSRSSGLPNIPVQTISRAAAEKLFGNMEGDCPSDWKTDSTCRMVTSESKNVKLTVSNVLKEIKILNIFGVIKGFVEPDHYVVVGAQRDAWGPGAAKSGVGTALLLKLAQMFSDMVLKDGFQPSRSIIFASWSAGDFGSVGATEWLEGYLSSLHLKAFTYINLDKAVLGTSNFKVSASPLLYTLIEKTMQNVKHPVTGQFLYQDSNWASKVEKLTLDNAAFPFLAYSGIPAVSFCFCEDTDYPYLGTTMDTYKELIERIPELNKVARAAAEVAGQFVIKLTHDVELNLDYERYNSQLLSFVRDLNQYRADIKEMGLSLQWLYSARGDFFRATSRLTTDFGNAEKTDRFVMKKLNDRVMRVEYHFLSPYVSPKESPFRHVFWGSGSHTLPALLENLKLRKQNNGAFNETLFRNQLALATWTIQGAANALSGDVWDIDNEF", "assay": "SPR, kinetic", "how_it_was_run": "(§1)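 TfR–mouse Fc fusions, produced in-house, captured on HC 1500M or CM5 chips either directly or via immobilized anti-mouse IgG. VHHs injected in single-cycle or multiple-cycle kinetic mode on Biacore T200.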", "units": {"Kd": "nM", "koff": "s⁻¹", "kon": "M⁻¹ s⁻¹"}, "values": [
      {"binder": "B1", "Kd": 30.9, "koff": 0.013, "kon": 462000},
      {"binder": "B2", "Kd": 0.876, "koff": 0.000487, "kon": 555000},
      {"binder": "B3", "Kd": 16.3, "koff": 0.00904, "kon": 624000},
      {"binder": "B4", "Kd": 0.357, "koff": 0.000392, "kon": "1.14e+06"},
      {"binder": "B5", "Kd": 0.212, "koff": "9.49e-05", "kon": 444000}
    ]},
    {"target": "T2, mouse TfR ectodomain fused to a mouse IgG1 Fc fragment (mouse, UniProt Q62351 89-763)", "T2 construct": "extracellular domain; not shown: mouse IgG1 Fc fragment", "T2 sequence (Q62351 89-763)": "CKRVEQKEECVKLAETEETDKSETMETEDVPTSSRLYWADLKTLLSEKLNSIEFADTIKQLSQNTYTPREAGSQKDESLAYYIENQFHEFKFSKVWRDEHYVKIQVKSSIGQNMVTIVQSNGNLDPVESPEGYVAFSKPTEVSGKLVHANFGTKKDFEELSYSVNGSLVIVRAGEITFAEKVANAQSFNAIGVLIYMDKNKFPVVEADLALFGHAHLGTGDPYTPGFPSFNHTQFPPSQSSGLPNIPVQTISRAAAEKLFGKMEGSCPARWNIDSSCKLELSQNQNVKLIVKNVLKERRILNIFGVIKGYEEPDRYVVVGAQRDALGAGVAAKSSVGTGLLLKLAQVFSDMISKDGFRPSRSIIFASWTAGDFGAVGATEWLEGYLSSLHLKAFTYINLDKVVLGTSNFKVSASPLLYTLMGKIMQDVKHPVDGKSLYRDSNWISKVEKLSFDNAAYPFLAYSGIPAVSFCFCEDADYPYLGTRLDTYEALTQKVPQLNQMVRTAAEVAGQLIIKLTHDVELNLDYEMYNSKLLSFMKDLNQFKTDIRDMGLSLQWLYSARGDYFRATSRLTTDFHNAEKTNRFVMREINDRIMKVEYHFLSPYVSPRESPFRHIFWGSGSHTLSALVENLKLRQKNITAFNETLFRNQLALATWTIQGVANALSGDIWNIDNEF", "assay": "SPR, kinetic", "how_it_was_run": "as §1", "units": {"Kd": "nM", "koff": "s⁻¹", "kon": "M⁻¹ s⁻¹"}, "values": [
      {"binder": "B1", "Kd": 336, "koff": 0.235, "kon": 816000},
      {"binder": "B2", "Kd": 244, "koff": 0.12, "kon": 546000},
      {"binder": "B3", "Kd": 643, "koff": 0.00825, "kon": 12800},
      {"binder": "B4", "Kd": 78.9, "koff": 0.0182, "kon": 231000}
    ]},
    {"target": "T1, human TfR ectodomain fused to a mouse …", "assay": "SPR, at equilibrium", "how_it_was_run": "as §1", "units": {"Kd": "nM"}, "values": [
      {"binder": "B1", "Kd": 27.3},
      {"binder": "B3", "Kd": 13.2}
    ]},
    {"target": "T2, mouse TfR ectodomain fused to a mouse …", "assay": "SPR, at equilibrium", "how_it_was_run": "as §1", "units": {"Kd": "nM"}, "values": [
      {"binder": "B1", "Kd": 300},
      {"binder": "B2", "Kd": 228},
      {"binder": "B3", "Kd": 2750},
      {"binder": "B4", "Kd": 113}
    ]},
    {"target": "T3, human transferrin receptor (hTfR) fused to EGFP, on CHO cells (human, UniProt P02786 1-760)", "T3 construct": "whole, on cells; also called human TfR; CHO-hTfR-EGFP; not shown: EGFP from pEGFP-C1 vector, fused to the N-terminal (intracellular) end of hTfR", "T3 sequence (P02786 whole entry, the tested form may be a part)": "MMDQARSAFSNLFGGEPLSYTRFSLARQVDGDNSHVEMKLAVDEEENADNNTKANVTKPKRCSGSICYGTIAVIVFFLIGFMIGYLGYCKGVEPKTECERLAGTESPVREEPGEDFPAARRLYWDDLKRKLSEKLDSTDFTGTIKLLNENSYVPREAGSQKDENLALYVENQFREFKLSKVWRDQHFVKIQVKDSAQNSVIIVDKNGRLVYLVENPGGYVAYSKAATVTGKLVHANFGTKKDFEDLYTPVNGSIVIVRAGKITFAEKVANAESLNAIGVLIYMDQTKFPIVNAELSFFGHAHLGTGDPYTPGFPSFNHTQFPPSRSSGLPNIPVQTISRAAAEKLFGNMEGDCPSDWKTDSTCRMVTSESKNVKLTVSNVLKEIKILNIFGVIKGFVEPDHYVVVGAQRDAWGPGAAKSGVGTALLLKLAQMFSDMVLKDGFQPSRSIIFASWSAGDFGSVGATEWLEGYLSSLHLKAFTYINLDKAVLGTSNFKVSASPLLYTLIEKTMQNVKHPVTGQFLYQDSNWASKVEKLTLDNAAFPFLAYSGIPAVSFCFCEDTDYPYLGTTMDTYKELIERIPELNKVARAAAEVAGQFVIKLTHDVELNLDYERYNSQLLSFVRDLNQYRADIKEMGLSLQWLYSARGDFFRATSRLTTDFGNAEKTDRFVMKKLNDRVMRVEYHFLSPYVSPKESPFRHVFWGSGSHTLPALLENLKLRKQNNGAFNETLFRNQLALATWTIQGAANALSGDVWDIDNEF", "assay": "apparent Kd, flow cytometry, CHO cells", "how_it_was_run": "(§2)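 CHO cells expressing TfR-EGFP fusions, blocked in PBS/BSA 2%, then incubated with increasing VHH concentrations for 1 hr at 4° C. Bound VHH detected via anti-6His antibody and Alexa647 secondary, cells PFA-fixed, read by flow cytometry. Apparent Kd from nonlinear fit.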", "units": {"Kd": "nM"}, "values": [
      {"binder": "B1", "Kd": 11},
      {"binder": "B2", "Kd": 3.2},
      {"binder": "B3", "Kd": 5.4},
      {"binder": "B4", "Kd": 3.5},
      {"binder": "B5", "Kd": 4.1}
    ]},
    {"target": "T4, mouse transferrin receptor (mTfR) fused to EGFP, on CHO cells (mouse, UniProt Q62351 1-763)", "T4 construct": "whole, on cells; also called mouse TfR; CHO-mTfR-EGFP; not shown: EGFP", "T4 sequence (Q62351 whole entry, the tested form may be a part)": "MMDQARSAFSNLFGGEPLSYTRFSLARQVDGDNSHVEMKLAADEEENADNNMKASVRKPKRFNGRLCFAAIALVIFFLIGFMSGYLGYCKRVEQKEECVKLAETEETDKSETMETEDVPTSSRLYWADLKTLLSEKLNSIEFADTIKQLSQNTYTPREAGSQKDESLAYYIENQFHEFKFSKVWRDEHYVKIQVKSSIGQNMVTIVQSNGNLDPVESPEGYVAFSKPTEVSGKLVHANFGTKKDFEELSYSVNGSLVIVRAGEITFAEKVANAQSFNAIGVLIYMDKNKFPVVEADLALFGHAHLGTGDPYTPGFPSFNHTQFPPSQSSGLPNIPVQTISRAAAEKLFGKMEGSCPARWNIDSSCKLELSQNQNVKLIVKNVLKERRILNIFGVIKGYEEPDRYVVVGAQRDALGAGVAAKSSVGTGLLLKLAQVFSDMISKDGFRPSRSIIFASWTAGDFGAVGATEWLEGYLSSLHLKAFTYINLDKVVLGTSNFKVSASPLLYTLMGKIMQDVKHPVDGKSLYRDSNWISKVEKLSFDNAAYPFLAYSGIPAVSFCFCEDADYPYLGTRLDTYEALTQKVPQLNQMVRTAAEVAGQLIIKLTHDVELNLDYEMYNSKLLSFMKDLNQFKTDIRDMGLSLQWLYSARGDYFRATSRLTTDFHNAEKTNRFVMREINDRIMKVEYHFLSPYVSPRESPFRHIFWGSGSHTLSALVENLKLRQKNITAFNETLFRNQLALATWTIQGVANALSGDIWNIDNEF", "assay": "apparent Kd, flow cytometry, CHO cells", "how_it_was_run": "as §2", "units": {"Kd": "nM"}, "values": [
      {"binder": "B1", "Kd": 834},
      {"binder": "B2", "Kd": 259},
      {"binder": "B3", "Kd": 1030},
      {"binder": "B4", "Kd": 187},
      {"binder": "B5", "Kd": 2.8}
    ]},
    {"target": "T5, rhesus monkey transferrin receptor (rhTfR) fused to EGFP, on CHO cells (rhesus monkey)", "T5 construct": "whole, on cells; also called rhesus monkey TfR", "assay": "apparent Kd, flow cytometry, CHO cells", "how_it_was_run": "as §2", "units": {"Kd": "nM"}, "values": [
      {"binder": "B1", "Kd": 957},
      {"binder": "B2", "Kd": 13},
      {"binder": "B3", "Kd": 521},
      {"binder": "B4", "Kd": 28},
      {"binder": "B5", "Kd": 1.9}
    ]},
    {"target": "T4, mouse transferrin receptor (mTfR) fused …", "assay": "cell-based flow cytometry assay on mTfR-expressing cells (as in Example XI)", "units": {"Bmax": "RFI"}, "values": [
      {"binder": "B6", "Bmax": 531},
      {"binder": "B7", "Bmax": 1470},
      {"binder": "B8", "Bmax": 781}
    ]},
    {"target": "T4, mouse transferrin receptor (mTfR) fused …", "assay": "cell-based flow cytometry assay on mTfR-expressing cells (as in Example XI); Kd/app", "units": {"Kd": "nM"}, "values": [
      {"binder": "B6", "Kd": 15.8},
      {"binder": "B7", "Kd": 22.3},
      {"binder": "B8", "Kd": 20.2}
    ]},
    {"target": "T6, murine TfR expressed by murine neuroblastoma Neuro-2a cells (mouse, UniProt Q62351 1-763)", "T6 construct": "whole, on cells; also called mTfR (N2a cells)", "T6 sequence (Q62351 whole entry)": "as the sequence (Q62351 whole entry, the tested form may be a part) above", "assay": "competition with the fluorescent reference VHH on Neuro-2a cells as in FIG. 25; Ki/app on mTfR", "description": "(§3) The binding of VHH-Oligo and VHH-hFc-Oligo conjugates to mTfR was evaluated using a competition assay on living cells expressing the receptor of interest, namely murine neuroblastoma Neuro-2a cells (N2a). N2a cells were grown in Dulbecco's Modified Eagle Medium (DMEM) GlutaMAX supplemented with 10% v/v FBS in 5% CO₂ at 37° C. Cells were seeded two days before experiments in 96-well plates at a density of 50.000 cells/well. […] Resuspended cells were transferred in a 96-deepwell plate (V-bottom) containing 1% fetal bovine serum (FBS)/0.02% sodium azide in phosphate-buffered saline (PBS) and then centrifuged for 5 min at 2000 rpm at 4° C. After removing the supernatant, 5 mM EDTA in D-PBS and 4% paraformaldehyde (PFA) (v/v 1:1) were added into wells to fix cells for 15 min at room temperature. PFA was removed by centrifugation (5 min, 3000 rpm, 4° C.) and cells were resuspended with 5 mM EDTA in D-PBS. Then the cellular A680-associated fluorescence signal was quantified using an Attune™ NxT flow cytometer (Thermo Fisher Scientific) equipped with Attune™ NxT v3.1.2. Experimental data (experimental triplicates) were fitted with GraphPad Prism® software using a nonlinear fit to determine the apparent Ki inhibition constants.", "units": {"Ki": "nM"}, "values": [
      {"binder": "B9", "Ki": 164}
    ]},
    {"target": "T6, murine TfR expressed by murine …", "assay": "competition with the fluorescent reference VHH on Neuro-2a cells as in FIG. 25; Ki/app on mTfR, free VHH", "description": "as §3", "units": {"Ki": "nM"}, "values": [
      {"binder": "B1", "Ki": 1480},
      {"binder": "B2", "Ki": 834},
      {"binder": "B3", "Ki": 7600},
      {"binder": "B4", "Ki": 1320},
      {"binder": "B5", "Ki": 43}
    ]}
  ]
}
